For this data set, the target named is T1, F-P564 peptide.
T1 chain: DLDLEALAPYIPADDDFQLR

B1: HIF-1alpha specific prolyl-4-hydroxylase-2 (PHD-2) (protein)
chain: MANDSGGPGGPSPSERDRQYCELCGKMENLLRCSRCRSSFYCCKEHQRQDWKKHKLVCQGSEGALGHGVGPHQHSGPAPPAAVPPPRAGAREPRKAAARRDNASGDAAKGKVKAKPPADPAAAASPCRAAAGGQGSAVAAEAEPGKEEPPARSSLFQEKANLYPPSNTPGDALSPGGGLRPNGQTKPLPALKLALEYIVPCMNKHGICVVDDFLGKETGQQIGDEVRALHDTGKFTDGQLVSQKSDSSKDIRGDKITWIEGKEPGCETIGLLMSSMDDLIRHCNGKLGSYKINGRTKAMVACYPGNGTGYVRHVDNPNGDGRCVTCIYYLNKDWDAKVSGGILRIFPEGKAQFADIEPKFDRLLFFWSDRRNPHEVQPAYATRYAITVWYFDADERARAKVKYLTGEKGVRVELNKPSDSVGKDVF
With B1, the “prolyl hydroxylation of F-P564 peptide, mass analysis” value is recorded as “the 564th proline group in F-P564 was hydroxylated by the addition of prolyl hydroxylase”.

The values above are taken from patent US20070020718.
